# From patent publication US20100022624
# Target: α-tubulin (human, endogenous)
protein,measurement,value
"HDAC6 (human, endogenous) (protein) MTSTGQDSTTTRQRRSRQNPQSPPQDSSVTSKRNIKKGAVPRSIPNLAEVKKKGKMKKLGQAMEEDLIVGLQGMDLNLEAEALAGTGLVLDEQLNEFHCLWDDSFPEGPERLHAIKEQLIQEGLLDRCVSFQARFAEKEELMLVHSLEYIDLMETTQYMNEGELRVLADTYDSVYLHPNSYSCACLASGSVLRLVDAVLGAEIRNGMAIIRPPGHHAQHSLMDGYCMFNHVAVAARYAQQKHRIRRVLIVDWDVHHGQGTQFTFDQDPSVLYFSIHRYEQGRFWPHLKASNWSTTGFGQGQGYTINVPWNQVGMRDADYIAAFLHVLLPVALEFQPQLVLVAAGFDALQGDPKGEMAATPAGFAQLTHLLMGLAGGKLILSLEGGYNLRALAEGVSASLHTLLGDPCPMLESPGAPCRSAQASVSCALEALEPFWEVLVRSTETVERDNMEEDNVEESEEEGPWEPPVLPILTWPVLQSRTGLVYDQNMMNHCNLWDSHHPEVPQRILRIMCRLEELGLAGRCLTLTPRPATEAELLTCHSAEYVGHLRATEKMKTRELHRESSNFDSIYICPSTFACAQLATGAACRLVEAVLSGEVLNGAAVVRPPGHHAEQDAACGFCFFNSVAVAARHAQTISGHALRILIVDWDVHHGNGTQHMFEDDPSVLYVSLHRYDHGTFFPMGDEGASSQIGRAAGTGFTVNVAWNGPRMGDADYLAAWHRLVLPIAYEFNPELVLVSAGFDAARGDPLGGCQVSPEGYAHLTHLLMGLASGRIILILEGGYNLTSISESMAACTRSLLGDPPPLLTLPRPPLSGALASITETIQVHRRYWRSLRVMKVEDREGPSSSKLVTKKAPQPAKPRLAERMTTREKKVLEAGMGKVTSASFGEESTPGQTNSETAVVALTQDQPSEAATGGATLAQTISEAAIGGAMLGQTTSEEAVGGATPDQTTSEETVGGAILDQTTSEDAVGGATLGQTTSEEAVGGATLAQTTSEAAMEGATLDQTTSEEAPGGTELIQTPLASSTDHQTPPTSPVQGTTPQISPSTLIGSLRTLELGSESQGASESQAPGEENLLGEAAGGQDMADSMLMQGSRGLTDQAIFYAVTPLPWCPHLVAVCPIPAAGLDVTQPCGDCGTIQENWVCLSCYQVYCGRYINGHMLQHHGNSGHPLVLSYIDLSAWCYYCQAYVHHQALLDVKNIAHQNKFGEDMPHPH",amount of acetylated α-tubulin (immunoblot) after HDAC6 siRNA,only HSMCs transfected with siRNAs specific for HDAC6 displayed increased levels of acetylated α-tubulin
